Data set [1] addresses T1, PET28-NgAP2a (Nannochloropsis gaditana, UniProt W7TGT1 140-326).
T1 sequence: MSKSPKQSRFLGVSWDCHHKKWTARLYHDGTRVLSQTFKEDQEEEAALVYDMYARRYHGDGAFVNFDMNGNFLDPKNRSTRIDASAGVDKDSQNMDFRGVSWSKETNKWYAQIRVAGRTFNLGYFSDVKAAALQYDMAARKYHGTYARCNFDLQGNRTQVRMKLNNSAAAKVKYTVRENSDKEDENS
Kind of data set: EMSA; Beyotime Chemiluminescent EMSA Kit GS009 per manual; buffer, salt, pH and temperature not stated. To be noted: protein: recombinant; label: 3' biotin; blunt.

In data set [2] the target is T1, PET28-NgAP2a. Kind of data set: competition; 100x unlabeled vs biotin M5 probe; Beyotime Chemiluminescent EMSA Kit GS009 per manual; buffer, salt, pH and temperature not stated. Particulars: protein: recombinant; label: none (unlabeled); blunt.

Changes are numbered by the printed parent chain.

B1: M3 probe (EMSA3) (dsDNA)
DNA 1: GGCGTTGCCACTTGGGCAAAGAAAAGCTGG
DNA 2: CCAGCTTTTCTTTGCCCAAGTGGCAACGCC
As to B1, the binding result in data set [1] is “no binding”.

B2: M5 probe (EMSA5) (dsDNA)
DNA 1: CTCATTCCCATACCGCAAGTACCTGACCCTGTA
DNA 2: TACAGGGTCAGGTACTTGCGGTATGGGAATGAG
B2: the binding result in data set [1] was “binds”.

B3: unlabeled M5 competitor (dsDNA)
DNA 1: B2 DNA 1
DNA 2: B2 DNA 2
B3: the binding result in data set [2] is “binds”.

B4: mutant M5 competitor (mu_EMSA5) (dsDNA)
DNA 1: B2 DNA 1 with C13A, C14A, G15A
DNA 2: B2 DNA 2 with C19T, G20T, G21T
B4: the binding result in data set [2] is “no binding”.

Values taken from paper PMC11477109, “NgAP2a Targets KCS Gene to Promote Lipid Accumulation in Nannochloropsis gaditana”.
